This note sets out measurements from IntAct's records for PubMed 21850687.

Experiment [1] has as its target prdx3_human PRDX3 (UniProt P30048).
Experiment [2] has the same target. The source holds these as a separate data set.

UniProt P30048, sequence (P30048 whole entry): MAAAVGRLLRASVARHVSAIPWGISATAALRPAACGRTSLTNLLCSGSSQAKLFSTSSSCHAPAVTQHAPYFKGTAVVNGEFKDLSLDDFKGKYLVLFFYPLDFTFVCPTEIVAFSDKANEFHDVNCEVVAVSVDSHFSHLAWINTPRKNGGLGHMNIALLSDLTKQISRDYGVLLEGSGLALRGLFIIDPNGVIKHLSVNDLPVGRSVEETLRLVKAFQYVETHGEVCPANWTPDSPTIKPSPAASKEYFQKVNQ

For “Leucine-rich repeat serine/threonine-protein kinase 2 (Homo sapiens), Q5S007 G2019V;I2020F”, in the experiment with prdx3_human PRDX3 [1], the “effect of a mutation on the interaction” value was “disrupting interaction”.
“Leucine-rich repeat serine/threonine-protein kinase 2 (Homo sapiens), Q5S007 G2019S”: in the experiment with prdx3_human PRDX3 [2], the “effect of a mutation on the interaction” value is “increasing interaction”.
